From patent US20150024380A1 come the findings set out here.

Experiment [1] deals with antibodies of human serum sample 295 (HCV-negative serum with interference) (human). Briefly: Vidas anti-HCV immunoassay: index of the serum on coated HCV Core/NS3/NS4 antigens with 1 ug/ml peptide added (competition).
The target of experiment [2] is antibodies of human serum sample F25 (HCV-negative serum with interference) (human). The description is as above.
The target of experiment [3] is anti-HCV antibodies of positive control sample C1 (commercial serum pool, Trina Bioreactives AG). In words: Vidas anti-HCV immunoassay: index of the positive control on coated HCV Core/NS3/NS4 antigens with 1 ug/ml peptide added (competition).
Experiment [4] addresses antibodies of human serum sample 175 1811 (HCV-negative serum with interference) (human). Briefly: Vidas anti-HCV immunoassay: index of the serum on coated HCV Core/NS3/NS4 antigens with 5 ug/ml peptide added (competition).
Experiment [5] addresses antibodies of human serum sample 284 2408 (HCV-negative serum with interference) (human). The experiment is described as above.
In experiment [6] the target is antibodies of human serum sample 498 (HCV-negative serum with interference) (human). The description is as above.
For experiment [7], the target named is antibodies of human serum sample 801 1409 (HCV-negative serum with interference) (human). The description is as above.
Experiment [8] has as its target antibodies of human serum sample F53 3009 (HCV-negative serum with interference) (human). Described as above.
In experiment [9] the target is antibodies of human serum sample H48 (HCV-negative serum with interference) (human). The description is as above.
For experiment [10], the target named is antibodies of human serum sample M43 (HCV-negative serum with interference) (human). The description is as above.
For experiment [11], the target named is anti-HCV antibodies of positive control sample C1 (commercial serum pool, Trina Bioreactives AG). Briefly: Vidas anti-HCV immunoassay: index of the positive control on coated HCV Core/NS3/NS4 antigens with 5 ug/ml peptide added (competition).

B1: peptide A8E (Streptococcus pneumoniae) (peptide)
peptide: AQKRLAPYIE
Take B1: the Index in experiment [1] came to 0.95 index; in experiment [2], 0.41 index; in experiment [3], 3.02 index.

B2: peptide Y7E-1 (Staphylococcus aureus) (peptide)
peptide: YSPTHYVPE
Consider B2, for which the Index in experiment [4] was found to be 0.47 index; in [5], 0.86 index; in experiment [6], 0.14 index; in experiment [7] it was 0.71 index; in experiment [8], 0.32 index; in [9], 0.88 index. Moreover, the Index in [10] was determined as 0.17 index; in experiment [11], 3.02 index.

B3: peptide A6M (Streptococcus pneumoniae) (peptide)
peptide: APYIEKGM
Turning to B3, the Index in [1] was 1.04 index; in experiment [2], 2.9 index; in experiment [3], 3.05 index.

B4: peptide E8E (HCV) (peptide)
peptide: ECSQHLPYIE
In the case of B4, the Index came out at 0.9 index in [1], 0.85 index in experiment [2] and 2.92 index in experiment [3].

B5: peptide V7E (HCV) (peptide)
peptide: VSPTHYVPE
For B5, the Index in [4] amounted to 0.49 index; in experiment [5], 1.51 index; in experiment [6], 0.35 index; in [7], 1.04 index; in [8], 0.39 index; in experiment [9] it was 1.17 index. In addition, the Index in experiment [10] was 0.42 index; in experiment [11], 3.06 index.
